Results taken from patent publication US20260242478A1 (published 2026).

B1: Phage-970 (peptide)
peptide: YCEGHADEYMWKCL
B2: Phage-971 (peptide)
peptide: YCEGHSVEYIGKCL
B3: Phage-972 (peptide)
peptide: YCDGHRVEYMAKCL
B4: Phage-973 (peptide)
peptide: YCEGHSWEHMEKCL
B5: Phage-974 (peptide)
peptide: YCAGHSSEYIPKCL
B6: Phage-975 (peptide)
peptide: YCDGHLPQYLQKCT
B7: Phage-976 (peptide)
peptide: YCDGHAKEYIQKCL
B8: Phage-977 (peptide)
peptide: YCEGHLPQYMVKCL
B9: Phage-978 (peptide)
peptide: YCQGHADEYMAKCL
B10: Phage-979 (peptide)
peptide: YCDGHAEEYLLKCL
B11: Phage-980 (peptide)
peptide: YCEGHLGIYMTKCL
B12: Phage-981 (peptide)
peptide: YCDGHSWQYMWKCI
B13: Phage-982 (peptide)
peptide: YCEGHSEEFMSKCL
B14: Phage-997 (peptide)
peptide: YCEGHAPVYMFKCL
notes: tested as crude clonal phage supernatant
B15: Phage-998 (peptide)
peptide: YCEGHLGQYMEKCL
notes: as for B14
B16: Phage-999 (peptide)
peptide: YCDGHNGVYWWKCI
notes: as for B14
B17: Phage-1000 (peptide)
peptide: YCDGHAPEYLTKCL
notes: as for B14
B18: Phage-1001 (peptide)
peptide: YCEGHSIQYMTKCL
notes: as for B14
B19: Phage-1002 (peptide)
peptide: YCDGHLQIYMGKCL
notes: as for B14
B20: Phage-1003 (peptide)
peptide: YCDGHSVEYLDKCL
notes: as for B14
B21: Phage-1004 (peptide)
peptide: YCDGHAWQYMWKCL
notes: as for B14
B22: Phage-946 (peptide)
peptide: YCAGHLPEYMGKCL
B23: Phage-947 (peptide)
peptide: YCAGHLAIYMSKCL
B24: Phage-948 (peptide)
peptide: YCDGHLSEYMSKCL
B25: Phage-949 (peptide)
peptide: YCEGHVTEYMQKCL
B26: Phage-950 (peptide)
peptide: YCDGHAQEYMDKCL
B27: Phage-951 (peptide)
peptide: YCEGHAPQYIMKCL
B28: Phage-952 (peptide)
peptide: YCDGHELKYMLKCL
B29: Phage-953 (peptide)
peptide: YCDGHLLEYKAKCL
B30: Phage-954 (peptide)
peptide: YCEGHLEEYMAKCL
B31: Phage-955 (peptide)
peptide: YCDGHSPEYMLKCL
B32: Phage-956 (peptide)
peptide: YCAGHSPQYMEKCL
B33: Phage-957 (peptide)
peptide: YCDGHSVKYMAKCL
notes: as for B14
B34: Phage-958 (peptide)
peptide: YCSGHLPEYMWKCL
notes: as for B14
B35: Phage-959 (peptide)
peptide: YCDGHSVEYKLKCM
notes: as for B14
B36: Phage-960 (peptide)
peptide: YCDGHAQEYMVKCL
notes: as for B14
B37: Phage-961 (peptide)
peptide: YCAGHSPEYMQKCL
notes: as for B14
B38: Phage-962 (peptide)
peptide: YCEGHLPLYMDKCL
notes: as for B14
B39: Phage-963 (peptide)
peptide: YCEGHSAAYMQKCL
notes: as for B14
B40: Phage-964 (peptide)
peptide: YCEGHMPEYLQKCL
notes: as for B14
B41: Phage-965 (peptide)
peptide: YCDGHELQYMAKCL
notes: as for B14
B42: Phage-966 (peptide)
peptide: YCDGHRLEYLEKCL
notes: as for B14
B43: Phage-967 (peptide)
peptide: YCAGHLDQYIEKCL
notes: as for B14
B44: Phage-968 (peptide)
peptide: YCDGHAQEFIWKCL
notes: as for B14
B45: Phage-969 (peptide)
peptide: YCDGHSEAYMWKCL
notes: as for B14

target: T1, Anti-CD28 Fab (SEQ ID NOs: 696, 697); assay: phage ELISA on plate-captured anti-CD28 Fab pre-incubated with CD28 antigen (competitor: CD28)
T1 construct: Biotinylated and captured on neutravidin coated plates in the phage ELISA
T1 sequence (VH, as listed by the source, chain 1 of 2): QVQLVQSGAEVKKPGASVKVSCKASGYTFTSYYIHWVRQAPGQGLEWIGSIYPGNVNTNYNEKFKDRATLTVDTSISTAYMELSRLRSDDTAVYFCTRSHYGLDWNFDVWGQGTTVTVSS
T1 sequence (VL, as listed by the source, chain 2 of 2): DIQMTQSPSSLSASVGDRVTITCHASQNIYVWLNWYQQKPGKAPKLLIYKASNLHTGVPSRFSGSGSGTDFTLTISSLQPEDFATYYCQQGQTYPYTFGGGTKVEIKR
Experimental: (§1) After panning, phage infected bacteria were plated out and colonies picked into 96 well blocks. Clonal phage was then amplified and separated from bacterial cells via centrifugation.
(§2) Clonal phage were harvested as crude supematants and screened via standard ELISAs. […] Prior to the addition of clonal phage, wells were incubated with blocking buffer and CD28 antigen or blocking buffer alone. Without washing or aspirating, clonal phage supematants were then added to the wells and incubated for a short time. Wells were then washed followed by detection of bound phage using a horse radish conjugated anti-M13 antibody. Clonal phage of interest were then sent for sequence analysis.

Compared with B1, B2 is higher in “Anti-CD28 Fab signal in the presence of CD28 (phage binding ELISA)” value: 0.06 for the first, 0.07 for the second.

Going from B3 to B4, the “Anti-CD28 Fab signal in the presence of CD28 (phage binding ELISA)” value falls from 0.09 to 0.06.

Compared with B5, B6 is lower in “Anti-CD28 Fab signal in the presence of CD28 (phage binding ELISA)” value: 0.09 for the first, 0.07 for the second.

Compared with B7, B8 is higher in “Anti-CD28 Fab signal in the presence of CD28 (phage binding ELISA)” value: 0.06 for the first, 0.07 for the second.

First: B9
Second: B10
The “Anti-CD28 Fab signal in the presence of CD28 (phage binding ELISA)” value of the first is higher: 0.08 for the first, 0.05 for the second.

First: B11
Second: B12
The “Anti-CD28 Fab signal in the presence of CD28 (phage binding ELISA)” value of the first is lower: 0.08 for the first, 0.09 for the second.

In the case of B13, the “Anti-CD28 Fab signal in the presence of CD28 (phage binding ELISA)” value is reported as 0.08.

target: T2, Anti-CD28 Fab (SEQ ID NOs: 696, 697); assay: phage ELISA; clonal phage on plate-captured biotinylated anti-CD28 Fab, anti-M13 HRP detection
T2 construct: Biotinylated and captured on neutravidin coated plates in the phage ELISA
T2 sequence (VH, as listed by the source, chain 1 of 2): as the sequence (VH, as listed by the source, chain 1 of 2) above
T2 sequence (VL, as listed by the source, chain 2 of 2): as the sequence (VL, as listed by the source, chain 2 of 2) above
Experimental: as §1, §2

B14 and B15 are the same in “Phage binding ELISA, Anti-CD28 Fab signal” value: 1.54 for the first, 1.54 for the second.

B16 and B17 are the same in “Phage binding ELISA, Anti-CD28 Fab signal” value: 1.53 for the first, 1.53 for the second.

B18 and B19 are the same in “Phage binding ELISA, Anti-CD28 Fab signal” value: 1.53 for the first, 1.53 for the second.

B20 and B21 are the same in “Phage binding ELISA, Anti-CD28 Fab signal” value: 1.53 for the first, 1.53 for the second.

target: T3, Anti-CD28 Fab (SEQ ID NOs: 696, 697); assay: phage ELISA; captured anti-CD28 Fab pre-incubated with CD28 antigen as competitor, anti-M13 HRP;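 also: crude clonal phage supernatants added without washing after CD28 pre-incubation, bound phage detected with HRP anti-M13 antibody, reference wells got blocking buffer lacking CD28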
T3 construct: Biotinylated and captured on neutravidin coated plates in the phage ELISA
T3 sequence (VH, as listed by the source, chain 1 of 2): as the sequence (VH, as listed by the source, chain 1 of 2) above
T3 sequence (VL, as listed by the source, chain 2 of 2): as the sequence (VL, as listed by the source, chain 2 of 2) above
Experimental: as §1, §2

Going from B22 to B23, the “Phage binding ELISA, Anti-CD28 Fab signal in the presence of CD28” value rises from 0.07 to 0.08.

Going from B24 to B25, the “Phage binding ELISA, Anti-CD28 Fab signal in the presence of CD28” value rises from 0.06 to 0.08.

First: B26
Second: B27
The “Phage binding ELISA, Anti-CD28 Fab signal in the presence of CD28” value of the first is higher: 0.08 for the first, 0.06 for the second.

Going from B28 to B29, the “Phage binding ELISA, Anti-CD28 Fab signal in the presence of CD28” value falls from 0.08 to 0.07.

B30 and B31 are the same in “Phage binding ELISA, Anti-CD28 Fab signal in the presence of CD28” value: 0.07 for the first, 0.07 for the second.

B32 was tested, and the “Phage binding ELISA, Anti-CD28 Fab signal in the presence of CD28” value was 0.06.

target: T2, Anti-CD28 Fab (SEQ ID NOs: 696, 697); assay: phage ELISA; clonal phage on plate-captured anti-CD28 Fab pre-incubated with CD28 antigen as competitor
Experimental: as §1, §2

B14 and B15 are the same in “Phage binding ELISA, Anti-CD28 Fab signal in the presence of CD28” value: 0.08 for the first, 0.08 for the second.

Compared with B16, B17 is lower in “Phage binding ELISA, Anti-CD28 Fab signal in the presence of CD28” value: 0.07 for the first, 0.06 for the second.

Going from B18 to B19, the “Phage binding ELISA, Anti-CD28 Fab signal in the presence of CD28” value falls from 0.13 to 0.06.

Compared with B20, B21 is lower in “Phage binding ELISA, Anti-CD28 Fab signal in the presence of CD28” value: 0.08 for the first, 0.07 for the second.

target: T4, Anti-CD28 Fab (SEQ ID NOs: 696, 697); assay: phage binding ELISA on captured anti-CD28 Fab, wells pre-incubated with CD28 antigen as competitor;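 also: crude clonal phage supernatants added to wells preloaded with CD28 antigen, bound phage read by HRP-conjugated anti-M13 antibody, control wells got blocking buffer alone without CD28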
T4 construct: In the phage ELISA the Fab was biotinylated and captured on neutravidin coated plates
T4 sequence (VH, as listed by the source, chain 1 of 2): as the sequence (VH, as listed by the source, chain 1 of 2) above
T4 sequence (VL, as listed by the source, chain 2 of 2): as the sequence (VL, as listed by the source, chain 2 of 2) above
Experimental: as §1, §2

Going from B33 to B34, the “Anti-CD28 Fab signal in the presence of CD28” value rises from 0.06 to 0.1.

B35 and B36 are the same in “Anti-CD28 Fab signal in the presence of CD28” value: 0.06 for the first, 0.06 for the second.

B37 and B38 are the same in “Anti-CD28 Fab signal in the presence of CD28” value: 0.08 for the first, 0.08 for the second.

Compared with B39, B40 is higher in “Anti-CD28 Fab signal in the presence of CD28” value: 0.09 for the first, 0.1 for the second.

Going from B41 to B42, the “Anti-CD28 Fab signal in the presence of CD28” value falls from 0.08 to 0.06.

B43 and B44 are the same in “Anti-CD28 Fab signal in the presence of CD28” value: 0.1 for the first, 0.1 for the second.

With B45 the “Anti-CD28 Fab signal in the presence of CD28” value was 0.07.

target: T4, Anti-CD28 Fab (SEQ ID NOs: 696, 697); assay: phage binding ELISA, clonal phage on biotinylated anti-CD28 Fab captured on neutravidin plates;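 also: crude clonal phage supernatants added to wells pretreated with CD28 antigen or blocking buffer only, bound phage detected by HRP-linked anti-M13 antibody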
Experimental: as §1, §2

B33 and B34 are the same in “Anti-CD28 Fab (SEQ ID NOs: 696, 697) signal” value: 1.61 for the first, 1.61 for the second.

B35 and B36 are the same in “Anti-CD28 Fab (SEQ ID NOs: 696, 697) signal” value: 1.61 for the first, 1.61 for the second.

B37 and B38 are the same in “Anti-CD28 Fab (SEQ ID NOs: 696, 697) signal” value: 1.6 for the first, 1.6 for the second.

B39 and B40 are the same in “Anti-CD28 Fab (SEQ ID NOs: 696, 697) signal” value: 1.6 for the first, 1.6 for the second.

B41 and B42 are the same in “Anti-CD28 Fab (SEQ ID NOs: 696, 697) signal” value: 1.6 for the first, 1.6 for the second.

B43 and B44 are the same in “Anti-CD28 Fab (SEQ ID NOs: 696, 697) signal” value: 1.6 for the first, 1.6 for the second.

For B45, the “Anti-CD28 Fab (SEQ ID NOs: 696, 697) signal” value was 1.59.

target: T3, Anti-CD28 Fab (SEQ ID NOs: 696, 697); assay: phage ELISA; biotinylated anti-CD28 Fab on neutravidin plate, clonal phage supernatant, anti-M13 HRP

B22 and B23 are the same in “Phage binding ELISA, Anti-CD28 Fab signal” value: 1.63 for the first, 1.63 for the second.

B24 and B25 are the same in “Phage binding ELISA, Anti-CD28 Fab signal” value: 1.62 for the first, 1.62 for the second.

B26 and B27 are the same in “Phage binding ELISA, Anti-CD28 Fab signal” value: 1.62 for the first, 1.62 for the second.

B28 and B29 are the same in “Phage binding ELISA, Anti-CD28 Fab signal” value: 1.62 for the first, 1.62 for the second.

Compared with B30, B31 is lower in “Phage binding ELISA, Anti-CD28 Fab signal” value: 1.62 for the first, 1.61 for the second.

For B32, the “Phage binding ELISA, Anti-CD28 Fab signal” value was 1.61.

target: T1, Anti-CD28 Fab (SEQ ID NOs: 696, 697); assay: phage ELISA, clonal phage on plate-captured biotinylated anti-CD28 Fab, anti-M13 HRP detection
Experimental: as §1, §2

B1 and B2 are the same in “Anti-CD28 Fab signal (phage binding ELISA)” value: 1.59 for the first, 1.59 for the second.

B3 and B4 are the same in “Anti-CD28 Fab signal (phage binding ELISA)” value: 1.58 for the first, 1.58 for the second.

B5 and B6 are the same in “Anti-CD28 Fab signal (phage binding ELISA)” value: 1.58 for the first, 1.58 for the second.

B7 and B8 are the same in “Anti-CD28 Fab signal (phage binding ELISA)” value: 1.58 for the first, 1.58 for the second.

Going from B9 to B10, the “Anti-CD28 Fab signal (phage binding ELISA)” value falls from 1.58 to 1.57.

B11 and B12 are the same in “Anti-CD28 Fab signal (phage binding ELISA)” value: 1.57 for the first, 1.57 for the second.

For B13, the “Anti-CD28 Fab signal (phage binding ELISA)” value was 1.57.
